Reference: patent publication US20210324099A1 (Chugai, published 2021)
Where a chain is given by its changes, count along the chain named.

T1: hFcgRIIaH (human, UniProt P12318 34-217)
T1 construct: extracellular domain; also called human FcγRIIa type H (H131)
T1 sequence (looked up): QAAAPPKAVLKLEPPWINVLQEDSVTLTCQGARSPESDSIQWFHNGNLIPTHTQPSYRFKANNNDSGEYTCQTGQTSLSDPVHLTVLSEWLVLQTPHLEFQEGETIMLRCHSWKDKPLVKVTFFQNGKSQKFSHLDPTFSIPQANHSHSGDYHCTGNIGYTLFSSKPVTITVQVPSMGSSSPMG

T2: hFcgRIIb (human, UniProt P31994 43-217)
T2 construct: extracellular domain; also called human FcγRIIb
T2 sequence (looked up): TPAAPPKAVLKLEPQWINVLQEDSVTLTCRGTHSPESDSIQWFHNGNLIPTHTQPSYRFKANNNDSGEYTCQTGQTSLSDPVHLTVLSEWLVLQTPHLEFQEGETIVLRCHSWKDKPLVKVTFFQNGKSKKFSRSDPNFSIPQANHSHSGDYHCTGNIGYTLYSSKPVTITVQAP

T3: hFcgRIIaR (human, UniProt P12318 34-217)
T3 construct: extracellular domain; also called human FcγRIIa type R (R131)
T3 sequence (looked up): T1 sequence (looked up) with H134R

B1: A375-G1T3/B167-Lamlib (antibody, human IgG1, lambda)
heavy: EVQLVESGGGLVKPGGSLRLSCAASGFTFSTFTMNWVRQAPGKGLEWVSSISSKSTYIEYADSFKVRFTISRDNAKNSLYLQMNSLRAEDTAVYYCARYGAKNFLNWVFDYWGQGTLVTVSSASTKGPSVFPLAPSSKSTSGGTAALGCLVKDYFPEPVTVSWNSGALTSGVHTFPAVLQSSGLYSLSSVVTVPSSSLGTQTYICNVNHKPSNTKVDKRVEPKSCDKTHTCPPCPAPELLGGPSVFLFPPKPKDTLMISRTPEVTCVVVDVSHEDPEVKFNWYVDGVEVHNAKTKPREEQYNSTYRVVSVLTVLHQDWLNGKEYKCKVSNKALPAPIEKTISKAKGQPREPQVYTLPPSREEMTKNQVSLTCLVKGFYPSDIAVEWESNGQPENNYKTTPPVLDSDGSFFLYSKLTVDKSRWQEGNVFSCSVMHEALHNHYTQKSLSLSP
light: QSALTQPPSASGSPGQTVTISCTGTRYDVGYYEYVSWYQQHPGKAPKLMIYETSKRLSGVPDRFSGSKSGNTASLTVSGLQAEDEADYYCSSYRYEHQVSFGGGTKLTVLGQPKAAPSVTLFPPSSEELQANKATLVCLISDFYPGAVTVAWKADSSPVKAGVETTTPSKQSNNKYAASSYLSLTPEQWKSHRSYSCQVTHEGSTVEKTVAPTECS
notes: copies: 2 + 2
B2: A375-MY518/B167-Lamlib (antibody, human IgG1, lambda)
heavy: EVQLVESGGGLVKPGGSLRLSCAASGFTFSTFTMNWVRQAPGKGLEWVSSISSKSTYIEYADSFKVRFTISRDNAKNSLYLQMNSLRAEDTAVYYCARYGAKNFLNWVFDYWGQGTLVTVSSASTKGPSVFPLAPSSKSTSGGTAALGCLVKDYFPEPVTVSWNSGALTSGVHTFPAVLQSSGLYSLSSVVTVPSSSLGTQTYICNVNHKPSNTKVDKKVEPKSCDKTHTCPPCPAPELWNGPSVFLFPPKPKDTLMISRTPEVTCVVVDVSDEDPEVKFNWYVDGVEVHNAKTKPREELYNSTYRVVSVLTVLHQDWLNGKEYKCKVSNTALPKPIEKTISKAKGQPREPQVYTLPPSREEMTKNQVSLTCLVKGFYPSDIAVEWESNGQPENNYKTTPPVLDSDGSFFLYSKLTVDKSRWQQGNVFSCSVMHEALHNHYTQKSLSLSP
light: B1 light
notes: copies: 2 + 2
B3: A375-MY201aPh/B167-Lamlib (antibody, human IgG1, lambda)
heavy: B2 heavy with K219R, L300Q, T331K
light: B1 light
notes: copies: 2 + 2
B4: A375-MY518a/B167-Lamlib (antibody, human IgG1, lambda)
heavy: B2 heavy with K219R
light: B1 light
notes: copies: 2 + 2
B5: A375-MY201a/B167-Lamlib (antibody, human IgG1, lambda)
heavy: B2 heavy with K219R, W240L, L300Q, T331K
light: B1 light
notes: copies: 2 + 2
B6: A375-P587/B167-Lamlib (antibody, human IgG1, lambda)
heavy: EVQLVESGGGLVKPGGSLRLSCAASGFTFSTFTMNWVRQAPGKGLEWVSSISSKSTYIEYADSFKVRFTISRDNAKNSLYLQMNSLRAEDTAVYYCARYGAKNFLNWVFDYWGQGTLVTVSSASTKGPSVFPLAPSSKSTSGGTAALGCLVKDYFPEPVTVSWNSGALTSGVHTFPAVLQSSGLYSLSSVVTVPSSSLGTQTYICNVNHKPSNTKVDKKVEPKSCDKTHTCPPCPAPDLLGGDSVFLFPPKPKDTLMISRTPEVTCVVIDVAEEDGEVKFNWYVDGVEVHNAKTKPREEQYNSTYRVVSVLTVLHQDWLNGKEYKCKVSNKALPAPIEKTISKAKGQPREPQVYTLPPSRDELTKNQVSLTCLVKGFYPSDIAVEWESNGQPENNYKTTPPVLDSDGSFFLYSKLTVDKSRWQQGNVFSCSVMHEALHNHYTQKSLSLSP
light: B1 light
notes: copies: 2 + 2
B7: A375-P253/B167-Lamlib (antibody, human IgG1, lambda)
heavy: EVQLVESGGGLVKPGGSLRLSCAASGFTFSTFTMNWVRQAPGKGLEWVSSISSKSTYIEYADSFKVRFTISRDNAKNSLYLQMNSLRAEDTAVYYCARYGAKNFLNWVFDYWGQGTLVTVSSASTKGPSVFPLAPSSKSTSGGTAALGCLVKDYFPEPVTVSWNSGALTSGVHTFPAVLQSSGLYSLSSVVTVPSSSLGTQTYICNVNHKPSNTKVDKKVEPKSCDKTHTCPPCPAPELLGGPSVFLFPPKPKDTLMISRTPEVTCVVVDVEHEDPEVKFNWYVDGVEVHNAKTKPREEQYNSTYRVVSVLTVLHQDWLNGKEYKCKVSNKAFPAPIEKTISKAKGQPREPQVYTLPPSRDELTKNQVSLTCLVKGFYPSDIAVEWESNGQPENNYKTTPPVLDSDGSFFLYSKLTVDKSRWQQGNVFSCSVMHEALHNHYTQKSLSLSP
light: B1 light
notes: copies: 2 + 2
B8: A375-TT11/B167-Lamlib (antibody, human IgG1, lambda)
heavy: B2 heavy with L239Y, W240L, N241G, P243D, T255V, D273H, L300Q, T312P, T331K
light: B1 light
notes: copies: 2 + 2

target: human FcRn (human, UniProt P55899 24-290; P61769 21-119, limits assumed); test: SPR 25C pH 6.0, steady state;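 also: antibody captured on chip via anti-human Fab-lambda ligand, human FcRn injected as analyte in 50 mM phosphate buffer with 150 mM NaCl and P20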
Sequence (P55899 24-290 limits assumed, chain 1 of 2): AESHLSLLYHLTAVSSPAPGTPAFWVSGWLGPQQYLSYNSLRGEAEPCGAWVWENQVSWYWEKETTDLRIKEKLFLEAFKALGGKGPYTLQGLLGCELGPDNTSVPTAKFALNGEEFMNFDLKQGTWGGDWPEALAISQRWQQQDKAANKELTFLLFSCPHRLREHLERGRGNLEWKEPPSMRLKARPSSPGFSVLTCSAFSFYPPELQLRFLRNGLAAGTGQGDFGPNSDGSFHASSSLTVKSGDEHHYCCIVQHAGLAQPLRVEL
Sequence (P61769 21-119 limits assumed, chain 2 of 2): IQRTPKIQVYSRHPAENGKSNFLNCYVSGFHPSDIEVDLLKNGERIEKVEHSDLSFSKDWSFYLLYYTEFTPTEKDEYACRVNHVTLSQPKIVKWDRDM
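For binding per 1RU of antibody in this document: biacore SPR with antibody captured on an anti-human Fab lambda chip, human FcγR injected at 1000 nM (FcγRIa at 8 nM) in pH 7.4 phosphate buffer.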
Procedure: Biacore T200 (GE Healthcare) was used to assess the binding activity to human FcRn. Measurement was performed at 25° C. using 50 mM phosphate, 150 mM NaCl, 0.05 w/v %-P20, pH 6.0 as buffer. […] About 400 RU of antibody was captured using a sensor chip immobilized with CaptureSelect™ Human Fab-lambda Kinetics Biotin Conjugate (Thermo Fisher Scientific) as a molecule for ligand capturing, followed by the binding of human FcRn diluted in measuring buffer. The activity of the respective antibodies to bind FcRn was assessed by calculating KD (mol/L) by the steady-state model using Biacore T200 Evaluation Software 2.0.

Binder	Kd
B1	1.27 µM
B2	1.27 µM
B3	1.18 µM
B4	1.32 µM
B5	1.19 µM
B6	1.7 µM
B7	1.42 µM
B8	1.56 µM

target: T4, hFcgRIIIaF (human, UniProt P08637 17-208); test: SPR 25C; relative to A375-G1T3/B167-Lamlib;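 also: SPR with antibody captured on an anti-human Fab-lambda chip, human FcγR analyte at 8 nM for FcγRIa or 1000 nM for the others, pH 7.4, FcγR RU per captured antibody unit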
T4 construct: extracellular domain; also called human FcγRIIIa allotype F158
T4 sequence (P08637 17-208): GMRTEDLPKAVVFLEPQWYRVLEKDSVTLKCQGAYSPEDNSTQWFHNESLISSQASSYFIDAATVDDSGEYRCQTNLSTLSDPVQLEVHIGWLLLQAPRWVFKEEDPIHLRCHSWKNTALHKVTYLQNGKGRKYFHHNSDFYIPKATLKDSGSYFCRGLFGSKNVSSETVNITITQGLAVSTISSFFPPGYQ

Binder	relative binding amount
B1	1
B2	0.04
B3	0.03
B4	0.03
B5	0.04
B6	0
B7	0.26
B8	-0.04

target: T1, hFcgRIIaH; test: SPR 25C; relative to A375-G1T3/B167-Lamlib;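 also: SPR with antibody captured on an anti-human Fab-lambda chip, human FcγR analyte at 8 nM for FcγRIa or 1000 nM for the others, pH 7.4, FcγR RU per captured antibody unit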

Binder	relative binding amount
B1	1
B2	0.82
B3	0.58
B4	0.84
B5	0.94
B6	0.05
B7	0.88
B8	0.03

target: T2, hFcgRIIb; test: SPR 25C; relative to A375-G1T3/B167-Lamlib;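 also: SPR with antibody captured on an anti-human Fab-lambda chip, human FcγR analyte at 8 nM for FcγRIa or 1000 nM for the others, pH 7.4, FcγR RU per captured antibody unit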

Binder	relative binding amount
B1	1
B2	4.4
B3	2.85
B4	4.46
B5	3.66
B6	13
B7	14.3
B8	4.35

target: T5, hFcgRIa (human, UniProt P12314 16-292); test: SPR 25C; relative to A375-G1T3/B167-Lamlib;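 also: SPR with antibody captured on an anti-human Fab-lambda chip, human FcγR analyte at 8 nM for FcγRIa or 1000 nM for the others, pH 7.4, FcγR RU per captured antibody unit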
T5 construct: extracellular domain; also called human FcγRIa; FcγRI
T5 sequence (P12314 16-292): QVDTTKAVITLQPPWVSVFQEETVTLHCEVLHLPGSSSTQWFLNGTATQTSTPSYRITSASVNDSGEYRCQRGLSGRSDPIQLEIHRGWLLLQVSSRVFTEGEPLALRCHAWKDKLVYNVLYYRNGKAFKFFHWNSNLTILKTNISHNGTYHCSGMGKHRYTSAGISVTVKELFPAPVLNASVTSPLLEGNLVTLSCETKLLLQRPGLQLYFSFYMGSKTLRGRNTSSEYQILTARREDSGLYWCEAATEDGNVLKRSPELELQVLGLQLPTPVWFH

Binder	relative binding amount
B1	1
B2	0.02
B3	0.05
B4	0.04
B5	0.49
B6	1.18
B7	1.15

target: T3, hFcgRIIaR; test: SPR 25C; relative to A375-G1T3/B167-Lamlib

Binder	relative binding amount
B1	1
B2	0.99
B3	0.72
B4	1.01
B5	0.73
B6	0.8
B7	3.62

target: T6, hFcgRIIIaV (human, UniProt P08637 17-208); test: SPR 25C; relative to A375-G1T3/B167-Lamlib
T6 construct: extracellular domain; also called human FcγRIIIa allotype V158
T6 sequence (P08637 17-208 F176V): as the sequence (P08637 17-208) above, with F160V counted along it

Binder	relative binding amount
B1	1
B2	0.02
B3	0.02
B4	0.01
B5	0.03
B6	0
B7	0.03
B8	-0.01

target: T4, hFcgRIIIaF; test: SPR 25C

Binder	binding per 1RU of antibody
B1	0.0213 RU
B2	0.0009 RU
B3	0.0007 RU
B4	0.0006 RU
B5	0.0007 RU
B6	0.0001 RU
B7	0.0056 RU
B8	-0.0009 RU

target: T1, hFcgRIIaH; test: SPR 25C

Binder	binding per 1RU of antibody
B1	0.0567 RU
B2	0.0466 RU
B3	0.0328 RU
B4	0.0479 RU
B5	0.0534 RU
B6	0.0029 RU
B7	0.0497 RU
B8	0.002 RU

target: T2, hFcgRIIb; test: SPR 25C

Binder	binding per 1RU of antibody
B1	0.011 RU
B2	0.0482 RU
B3	0.0313 RU
B4	0.0489 RU
B5	0.0401 RU
B6	0.143 RU
B7	0.156 RU
B8	0.0477 RU

target: T5, hFcgRIa; test: SPR 25C

Binder	binding per 1RU of antibody
B1	0.0813 RU
B2	0.002 RU
B3	0.004 RU
B4	0.0033 RU
B5	0.0396 RU
B6	0.0962 RU
B7	0.0937 RU

target: T3, hFcgRIIaR; test: SPR 25C

Binder	binding per 1RU of antibody
B1	0.0463 RU
B2	0.046 RU
B3	0.0335 RU
B4	0.047 RU
B5	0.0338 RU
B6	0.0371 RU
B7	0.168 RU

target: T6, hFcgRIIIaV; test: SPR 25C

Binder	binding per 1RU of antibody
B1	0.07 RU
B2	0.0015 RU
B3	0.0011 RU
B4	0.0009 RU
B5	0.0024 RU
B6	0.0001 RU
B7	0.0019 RU
B8	-0.001 RU
